Consider 9 sequences from paper PMC3834821.

For this data set, the target named is T1, GST-DAZAP1 (UniProt Q9JII5).
T1 sequence: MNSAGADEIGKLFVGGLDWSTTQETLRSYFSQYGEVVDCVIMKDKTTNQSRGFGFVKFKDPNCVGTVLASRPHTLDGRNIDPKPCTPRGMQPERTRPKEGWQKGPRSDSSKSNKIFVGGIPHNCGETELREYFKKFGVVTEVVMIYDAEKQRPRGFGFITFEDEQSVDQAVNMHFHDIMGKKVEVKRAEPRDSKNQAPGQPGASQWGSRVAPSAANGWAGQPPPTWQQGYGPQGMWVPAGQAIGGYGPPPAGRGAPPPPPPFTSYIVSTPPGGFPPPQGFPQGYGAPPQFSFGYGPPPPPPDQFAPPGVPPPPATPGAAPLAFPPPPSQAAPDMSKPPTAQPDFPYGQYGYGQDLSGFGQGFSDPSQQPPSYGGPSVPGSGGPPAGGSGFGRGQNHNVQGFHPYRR
Description: EMSA. The note with it: 20 mM HEPES pH 7.6, 3 mM MgCl2, 40 mM KCl, 2 mM DTT, 5% glycerol, 5 mg/ml heparin; room temperature, 15 min; native 5% PAGE in 0.25x TBE; RNA 0.5-3.0 nM for Kd. (In general: In EMSA bound probe runs differently from free probe, usually more slowly.)
One may read the Kd as the concentration at which binding is half-saturated. Take “AAGGUGAUAUUUAGUAUAUAGUGACAAUUUAUG [Pot1a-dA]”: the dissociation constant Kd worked out at 7.04 nM. With “AAGGUGAUAUUUAGUAUAUAGUGACACGUAAACAUUUAUG [Pot1a-Wt]” the figure was 7.82 nM. Regarding “AAGGUGAUAUUUAUGACACGUAAACAUUUAUG [Pot1a-dE]”, the equilibrium dissociation constant (Kd) came to 301 nM. As for AAGUGUGAUAUAAUUCACUAUAGAGGU [Crisp2-dB], the dissociation constant Kd is 81.8 nM.

In the case of “AAGUGUGAUAUAAUUCACUGGUAGUUUAUCAUAGAGGU [Crisp2-WtB]”, the equilibrium dissociation constant (Kd) was found to be 33.7 nM. In the case of “ACCUCCUAAUGGUAAGUACCCUACUUGUUCUUCAUUUCUU [Crem-Wt]”, the dissociation constant (Kd) was determined as 18.9 nM. The figure for ACCUCCUAAUUUGUUCUUCAUUUCUU [Crem-dA] is 169 nM; for “AUCAUAGAAUUUUAGUUUAUUCUGUGAACUUCAAAAUUGACU [Crisp2-dC]” it is 70.3 nM; for “AUCAUAGAGGUAGCAUUUUAGUUUAUUCUGUGAACUUCAAAAUUGACU [Crisp2-WtC]” it is 15.1 nM.
